Assay: Thermostability of solubilised adenosine A2a receptor and mutants (radioligand binding after or during heating)
Format: physicochemical
Conditions: Ligand(−) format, binding after the heating step
Text: FIG. 12 Flow chart showing the two different assay formats of ligand (+) and ligand (−) used to determine receptor thermostablity.
• 1. 315 site-directed mutants made between residues 2-316 of A2aR. • 2. All of these mutants have been assayed for thermostability using an assay measuring agonist and antagonist binding after the heating step (Ligand(−) format as described in FIG. 12). • a. […] Mutations have been combined to generate mutants in a putative antagonist conformation. Wildtype A2aR has a Tm of 31° C. with ZM241385 bound. • a. Rant17 A54L+K122A+L235A Tm 48° C. (ZM241385 bound) • b. Rant19 A54L,T88A,V239A+A204L Tm 47° C. (ZM241385 bound) • c. Rant21 A54L,T88A,V239A+K122A Tm 49° C. (ZM241385 bound) • 4. Mutations from the agonist screen have been combined, but have led to only a very low level of improvement in Tm of +2° C.

| Molecule | thermostability measured with 3H-NECA (agonist) | thermostability assayed with 3H-ZM241385 (antagonist) |
| --- | --- | --- |
| S223A: A2aR point mutant (protein, UniProt P29274 1-412, looked up, variant S223A) Adenosine receptor A2a: MPIMGSSVYITVELAIAVLAILGNVLVCWAVWLNSNLQNVTNYFVVSLAAADIAVGVLAIPFAITISTGFCAACHGCLFIACFVLVLTQSSIFSLLAIAIDRYIAIRIPLRYNGLVTGTRAKGIIAICWVLSFAIGLTPMLGWNNCGQPKEGKNHSQGCGEGQVACLFEDVVPMNYMVYFNFFACVLVPLLLMLGVYLRIFLAARRQLKQMESQPLPGERARATLQKEVHAAKSLAIIVGLFALCWLPLHIINCFTFFCPDCSHAPLWLMYLAIVLSHTNSVVNPFIYAYRIREFRQTFRKIIRSHVLRQQEPFKAAGTSARVLAAHGSDGEQVSLRLNGHPPGVWANGSAPHPERRPNGYALGLVSGGSAQESQGNTGLPDVELLSHELKGVCPEPPGLDDPLAQDGAGVS | improved thermostability |  |
| T224A: A2aR point mutant (protein, UniProt P29274 1-412, looked up, variant T224A) Adenosine receptor A2a: MPIMGSSVYITVELAIAVLAILGNVLVCWAVWLNSNLQNVTNYFVVSLAAADIAVGVLAIPFAITISTGFCAACHGCLFIACFVLVLTQSSIFSLLAIAIDRYIAIRIPLRYNGLVTGTRAKGIIAICWVLSFAIGLTPMLGWNNCGQPKEGKNHSQGCGEGQVACLFEDVVPMNYMVYFNFFACVLVPLLLMLGVYLRIFLAARRQLKQMESQPLPGERARSALQKEVHAAKSLAIIVGLFALCWLPLHIINCFTFFCPDCSHAPLWLMYLAIVLSHTNSVVNPFIYAYRIREFRQTFRKIIRSHVLRQQEPFKAAGTSARVLAAHGSDGEQVSLRLNGHPPGVWANGSAPHPERRPNGYALGLVSGGSAQESQGNTGLPDVELLSHELKGVCPEPPGLDDPLAQDGAGVS | improved thermostability |  |
| Q226A: A2aR point mutant (protein, UniProt P29274 1-412, looked up, variant Q226A) Adenosine receptor A2a: MPIMGSSVYITVELAIAVLAILGNVLVCWAVWLNSNLQNVTNYFVVSLAAADIAVGVLAIPFAITISTGFCAACHGCLFIACFVLVLTQSSIFSLLAIAIDRYIAIRIPLRYNGLVTGTRAKGIIAICWVLSFAIGLTPMLGWNNCGQPKEGKNHSQGCGEGQVACLFEDVVPMNYMVYFNFFACVLVPLLLMLGVYLRIFLAARRQLKQMESQPLPGERARSTLAKEVHAAKSLAIIVGLFALCWLPLHIINCFTFFCPDCSHAPLWLMYLAIVLSHTNSVVNPFIYAYRIREFRQTFRKIIRSHVLRQQEPFKAAGTSARVLAAHGSDGEQVSLRLNGHPPGVWANGSAPHPERRPNGYALGLVSGGSAQESQGNTGLPDVELLSHELKGVCPEPPGLDDPLAQDGAGVS | improved thermostability |  |
| K227A: A2aR point mutant (protein, UniProt P29274 1-412, looked up, variant K227A) Adenosine receptor A2a: MPIMGSSVYITVELAIAVLAILGNVLVCWAVWLNSNLQNVTNYFVVSLAAADIAVGVLAIPFAITISTGFCAACHGCLFIACFVLVLTQSSIFSLLAIAIDRYIAIRIPLRYNGLVTGTRAKGIIAICWVLSFAIGLTPMLGWNNCGQPKEGKNHSQGCGEGQVACLFEDVVPMNYMVYFNFFACVLVPLLLMLGVYLRIFLAARRQLKQMESQPLPGERARSTLQAEVHAAKSLAIIVGLFALCWLPLHIINCFTFFCPDCSHAPLWLMYLAIVLSHTNSVVNPFIYAYRIREFRQTFRKIIRSHVLRQQEPFKAAGTSARVLAAHGSDGEQVSLRLNGHPPGVWANGSAPHPERRPNGYALGLVSGGSAQESQGNTGLPDVELLSHELKGVCPEPPGLDDPLAQDGAGVS | improved thermostability |  |
| H230A: A2aR point mutant (protein, UniProt P29274 1-412, looked up, variant H230A) Adenosine receptor A2a: MPIMGSSVYITVELAIAVLAILGNVLVCWAVWLNSNLQNVTNYFVVSLAAADIAVGVLAIPFAITISTGFCAACHGCLFIACFVLVLTQSSIFSLLAIAIDRYIAIRIPLRYNGLVTGTRAKGIIAICWVLSFAIGLTPMLGWNNCGQPKEGKNHSQGCGEGQVACLFEDVVPMNYMVYFNFFACVLVPLLLMLGVYLRIFLAARRQLKQMESQPLPGERARSTLQKEVAAAKSLAIIVGLFALCWLPLHIINCFTFFCPDCSHAPLWLMYLAIVLSHTNSVVNPFIYAYRIREFRQTFRKIIRSHVLRQQEPFKAAGTSARVLAAHGSDGEQVSLRLNGHPPGVWANGSAPHPERRPNGYALGLVSGGSAQESQGNTGLPDVELLSHELKGVCPEPPGLDDPLAQDGAGVS | improved thermostability |  |
| L241A: A2aR point mutant (protein, UniProt P29274 1-412, looked up, variant L241A) Adenosine receptor A2a: MPIMGSSVYITVELAIAVLAILGNVLVCWAVWLNSNLQNVTNYFVVSLAAADIAVGVLAIPFAITISTGFCAACHGCLFIACFVLVLTQSSIFSLLAIAIDRYIAIRIPLRYNGLVTGTRAKGIIAICWVLSFAIGLTPMLGWNNCGQPKEGKNHSQGCGEGQVACLFEDVVPMNYMVYFNFFACVLVPLLLMLGVYLRIFLAARRQLKQMESQPLPGERARSTLQKEVHAAKSLAIIVGAFALCWLPLHIINCFTFFCPDCSHAPLWLMYLAIVLSHTNSVVNPFIYAYRIREFRQTFRKIIRSHVLRQQEPFKAAGTSARVLAAHGSDGEQVSLRLNGHPPGVWANGSAPHPERRPNGYALGLVSGGSAQESQGNTGLPDVELLSHELKGVCPEPPGLDDPLAQDGAGVS | improved thermostability |  |
| P260A: A2aR point mutant (protein, UniProt P29274 1-412, looked up, variant P260A) Adenosine receptor A2a: MPIMGSSVYITVELAIAVLAILGNVLVCWAVWLNSNLQNVTNYFVVSLAAADIAVGVLAIPFAITISTGFCAACHGCLFIACFVLVLTQSSIFSLLAIAIDRYIAIRIPLRYNGLVTGTRAKGIIAICWVLSFAIGLTPMLGWNNCGQPKEGKNHSQGCGEGQVACLFEDVVPMNYMVYFNFFACVLVPLLLMLGVYLRIFLAARRQLKQMESQPLPGERARSTLQKEVHAAKSLAIIVGLFALCWLPLHIINCFTFFCADCSHAPLWLMYLAIVLSHTNSVVNPFIYAYRIREFRQTFRKIIRSHVLRQQEPFKAAGTSARVLAAHGSDGEQVSLRLNGHPPGVWANGSAPHPERRPNGYALGLVSGGSAQESQGNTGLPDVELLSHELKGVCPEPPGLDDPLAQDGAGVS | improved thermostability |  |
| S263A: A2aR point mutant (protein, UniProt P29274 1-412, looked up, variant S263A) Adenosine receptor A2a: MPIMGSSVYITVELAIAVLAILGNVLVCWAVWLNSNLQNVTNYFVVSLAAADIAVGVLAIPFAITISTGFCAACHGCLFIACFVLVLTQSSIFSLLAIAIDRYIAIRIPLRYNGLVTGTRAKGIIAICWVLSFAIGLTPMLGWNNCGQPKEGKNHSQGCGEGQVACLFEDVVPMNYMVYFNFFACVLVPLLLMLGVYLRIFLAARRQLKQMESQPLPGERARSTLQKEVHAAKSLAIIVGLFALCWLPLHIINCFTFFCPDCAHAPLWLMYLAIVLSHTNSVVNPFIYAYRIREFRQTFRKIIRSHVLRQQEPFKAAGTSARVLAAHGSDGEQVSLRLNGHPPGVWANGSAPHPERRPNGYALGLVSGGSAQESQGNTGLPDVELLSHELKGVCPEPPGLDDPLAQDGAGVS | improved thermostability |  |
| G114A: A2aR point mutant (protein, UniProt P29274 1-412, looked up, variant G114A) Adenosine receptor A2a: MPIMGSSVYITVELAIAVLAILGNVLVCWAVWLNSNLQNVTNYFVVSLAAADIAVGVLAIPFAITISTGFCAACHGCLFIACFVLVLTQSSIFSLLAIAIDRYIAIRIPLRYNALVTGTRAKGIIAICWVLSFAIGLTPMLGWNNCGQPKEGKNHSQGCGEGQVACLFEDVVPMNYMVYFNFFACVLVPLLLMLGVYLRIFLAARRQLKQMESQPLPGERARSTLQKEVHAAKSLAIIVGLFALCWLPLHIINCFTFFCPDCSHAPLWLMYLAIVLSHTNSVVNPFIYAYRIREFRQTFRKIIRSHVLRQQEPFKAAGTSARVLAAHGSDGEQVSLRLNGHPPGVWANGSAPHPERRPNGYALGLVSGGSAQESQGNTGLPDVELLSHELKGVCPEPPGLDDPLAQDGAGVS | improved thermostability | improved thermostability |
| L267A: A2aR point mutant (protein, UniProt P29274 1-412, looked up, variant L267A) Adenosine receptor A2a: MPIMGSSVYITVELAIAVLAILGNVLVCWAVWLNSNLQNVTNYFVVSLAAADIAVGVLAIPFAITISTGFCAACHGCLFIACFVLVLTQSSIFSLLAIAIDRYIAIRIPLRYNGLVTGTRAKGIIAICWVLSFAIGLTPMLGWNNCGQPKEGKNHSQGCGEGQVACLFEDVVPMNYMVYFNFFACVLVPLLLMLGVYLRIFLAARRQLKQMESQPLPGERARSTLQKEVHAAKSLAIIVGLFALCWLPLHIINCFTFFCPDCSHAPAWLMYLAIVLSHTNSVVNPFIYAYRIREFRQTFRKIIRSHVLRQQEPFKAAGTSARVLAAHGSDGEQVSLRLNGHPPGVWANGSAPHPERRPNGYALGLVSGGSAQESQGNTGLPDVELLSHELKGVCPEPPGLDDPLAQDGAGVS | improved thermostability |  |
| L272A: A2aR point mutant (protein, UniProt P29274 1-412, looked up, variant L272A) Adenosine receptor A2a: MPIMGSSVYITVELAIAVLAILGNVLVCWAVWLNSNLQNVTNYFVVSLAAADIAVGVLAIPFAITISTGFCAACHGCLFIACFVLVLTQSSIFSLLAIAIDRYIAIRIPLRYNGLVTGTRAKGIIAICWVLSFAIGLTPMLGWNNCGQPKEGKNHSQGCGEGQVACLFEDVVPMNYMVYFNFFACVLVPLLLMLGVYLRIFLAARRQLKQMESQPLPGERARSTLQKEVHAAKSLAIIVGLFALCWLPLHIINCFTFFCPDCSHAPLWLMYAAIVLSHTNSVVNPFIYAYRIREFRQTFRKIIRSHVLRQQEPFKAAGTSARVLAAHGSDGEQVSLRLNGHPPGVWANGSAPHPERRPNGYALGLVSGGSAQESQGNTGLPDVELLSHELKGVCPEPPGLDDPLAQDGAGVS | improved thermostability |  |
